Experimental data as given in IntAct's records for PubMed 22921914.

B1: Protein SCARECROW (Arabidopsis thaliana (Mouse-ear cress)), Q9M384 (parent)
chain: MAESGDFNGGQPPPHSPLRTTSSGSSSSNNRGPPPPPPPPLVMVRKRLASEMSSNPDYNNSSRPPRRVSHLLDSNYNTVTPQQPPSLTAAATVSSQPNPPLSVCGFSGLPVFPSDRGGRNVMMSVQPMDQDSSSSSASPTVWVDAIIRDLIHSSTSVSIPQLIQNVRDIIFPCNPNLGALLEYRLRSLMLLDPSSSSDPSPQTFEPLYQISNNPSPPQQQQQHQQQQQQHKPPPPPIQQQERENSSTDAPPQPETVTATVPAVQTNTAEALRERKEEIKRQKQDEEGLHLLTLLLQCAEAVSADNLEEANKLLLEISQLSTPYGTSAQRVAAYFSEAMSARLLNSCLGIYAALPSRWMPQTHSLKMVSAFQVFNGISPLVKFSHFTANQAIQEAFEKEDSVHIIDLDIMQGLQWPGLFHILASRPGGPPHVRLTGLGTSMEALQATGKRLSDFADKLGLPFEFCPLAEKVGNLDTERLNVRKREAVAVHWLQHSLYDVTGSDAHTLWLLQRLAPKVVTVVEQDLSHAGSFLGRFVEAIHYYSALFDSLGASYGEESEERHVVEQQLLSKEIRNVLAVGGPSRSGEVKFESWREKMQQCGFKGISLAGNAATQATLLLGMFPSDGYTLVDDNGTLKLGWKDLSLLTASAWTPRS
partner: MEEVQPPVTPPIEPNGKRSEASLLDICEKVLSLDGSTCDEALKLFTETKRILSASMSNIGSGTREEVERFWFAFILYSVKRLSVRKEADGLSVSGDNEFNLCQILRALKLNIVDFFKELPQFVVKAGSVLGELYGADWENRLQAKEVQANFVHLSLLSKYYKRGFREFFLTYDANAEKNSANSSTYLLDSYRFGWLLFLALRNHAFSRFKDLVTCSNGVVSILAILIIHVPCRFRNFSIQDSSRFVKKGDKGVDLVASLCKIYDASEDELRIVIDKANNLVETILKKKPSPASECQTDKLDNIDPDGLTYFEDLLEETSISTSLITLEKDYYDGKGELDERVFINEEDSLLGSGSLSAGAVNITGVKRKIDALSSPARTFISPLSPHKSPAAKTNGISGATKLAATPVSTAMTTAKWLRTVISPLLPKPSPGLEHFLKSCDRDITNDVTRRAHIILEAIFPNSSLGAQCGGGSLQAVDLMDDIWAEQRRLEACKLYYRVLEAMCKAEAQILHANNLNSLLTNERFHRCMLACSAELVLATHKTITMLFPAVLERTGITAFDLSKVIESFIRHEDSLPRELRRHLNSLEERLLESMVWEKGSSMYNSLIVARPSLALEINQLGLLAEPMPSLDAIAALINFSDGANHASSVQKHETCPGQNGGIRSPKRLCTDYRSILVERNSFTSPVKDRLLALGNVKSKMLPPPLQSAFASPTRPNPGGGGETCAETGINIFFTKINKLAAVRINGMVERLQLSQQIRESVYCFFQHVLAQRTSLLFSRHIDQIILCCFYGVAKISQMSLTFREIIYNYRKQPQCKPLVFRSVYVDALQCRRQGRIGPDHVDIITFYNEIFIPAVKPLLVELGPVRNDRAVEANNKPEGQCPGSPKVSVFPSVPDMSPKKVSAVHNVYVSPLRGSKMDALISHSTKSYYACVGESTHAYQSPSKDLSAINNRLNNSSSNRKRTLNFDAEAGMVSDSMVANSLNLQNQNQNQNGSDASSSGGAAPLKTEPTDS

Variants of: B1
Settings: with rbr1_arath RBR1, Q9LKZ3

| effect of a mutation on the interaction | Variant |
| --- | --- |
| disrupting interaction strength | L295A;E299A |
